# Data as given in doi:10.1101/2020.07.23.218024 (bioRxiv, 2020).
# Residue numbers refer to the chain shown, from its start. Names may count otherwise.
# T1: 15N-PEX14(16–80W) (human, UniProt O75381 16-80, 15N-labelled)
# T1 chain: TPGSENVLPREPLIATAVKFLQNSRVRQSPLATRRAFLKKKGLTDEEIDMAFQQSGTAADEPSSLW
# B1: WAQEF peptide (peptide)
# peptide: ALSENWAQEFLAAGDA
# B2: FLHWY peptide (peptide)
# peptide: RKAFLHWYTGEGMDE
# B3: GST-PEX14-NTD K56A (domain or fragment)
# chain: MASSEQAEQPSQPSSTPGSENVLPREPLIATAVKFLQNSRVRQSPLATRRAFLKKAGLTDEEIDMAFQQSGTAADEPS
# B4: GST-PEX14-NTD F52A/K56A (domain or fragment)
# chain: B3 chain with F52A
# B5: GST-PEX14-NTD K54A (domain or fragment)
# chain: B3 chain with K54A, A56K
# B6: GST-PEX14-NTD (domain or fragment)
# chain: MASSEQAEQPSQPSSTPGSENVLPREPLIATAVKFLQNSRVRQSPLATRRAFLKKKGLTDEEIDMAFQQSGTAADEPSSL
# B7: His-PEX14-NTD (domain or fragment)
# chain: B6 chain
# B8: GST-PEX14-NTD F52A (domain or fragment)
# chain: TPGSENVLPREPLIATAVKFLQNSRVRQSPLATRRAALKKKGLTDEEIDMAFQQSGTAADEPSSL
# B9: PEX14-NTD (as used in ITC) (domain or fragment)
# chain: B8 chain with A37F
# B10: LVSEY peptide (peptide)
# peptide: MNDLVSEYQQYQDAT
# Tests used:
# 15N-PEX14(16–80W) [1] = target: T1, 15N-PEX14(16–80W); assay: NMR titration
# 15N-PEX14(16–80W) [2] = target: T1, 15N-PEX14(16–80W); assay: NMR titration
# [3] = target: microtubules / purified porcine brain tubulin (porcine); assay: ELISA
# [4] = target: full-length His6-TEV-PEX5S (human, UniProt P50542-2 1-602); assay: ELISA
# ß-tubulin(388–444) = ß-tubulin(388–444) (human, UniProt P07437 388-444); assay: ITC
# Chain of ß-tubulin(388–444) (P07437 388-444): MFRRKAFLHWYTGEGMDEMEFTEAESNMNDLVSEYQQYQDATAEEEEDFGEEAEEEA
binder,measurement,setting,value
B1,binding result,15N-PEX14(16–80W) [1],binds
B2,Kd,15N-PEX14(16–80W) [2],~282000 nM
B3,Kd,[3],12.5 ± 1.3 nM
B4,Kd,[3],89 ± 17 nM
B5,Kd,[3],3.9 ± 0.2 nM
B6,Kd,[4],~0.5 nM
B7,Kd,[4],~1.3 nM
B8,Kd,[3],39 ± 7.4 nM
B9,stoichiometry N,ß-tubulin(388–444),2
B10,Kd,15N-PEX14(16–80W) [2],~5000 nM
